Test results taken from US20250011363A1 (published 2025).

Target: acetylcholine receptor on acetylcholine receptor-overexpressing TE671 cells
Experiment: cell-based or functional assay

Inhibition of acetylcholine receptors (calcium imaging with Fura-2-AM, TE671 cells, nicotine 400 uM), 10 µM:
RSYSR [5mer-311]
RRGVRR [6mer-1-210]
RWRYKR [6mer-2-136]
KWRQKR [6mer-2-233]
RRQRR [5mer-73]
RKRIRR [6mer-1-43]
